Patent US20240409629A1 (CHIA TAI TIANQING PHARMACEUTICAL GROUP, published 2024)

How the values were obtained:
human CLDN18.2 [1] = target: T1, human CLDN18.2 (human); test: FACS, KATOIII cells (natural CLDN18.2)
T1 construct: also called claudin18.2
Method: (§1) Based on the FACS method, the binding activity of anti-CLDN18.2 humanized antibodies for the cell lines KATOIII (Cell Bank of the Chinese Academy of Sciences) and NUGC-4 (Cell Bank of the Chinese Academy of Sciences) naturally expressing CLDN18.2 was analyzed. […] See Example 3 for the specific method.

human CLDN18.2 [2] = target: T1, human CLDN18.2; test: cell-based or functional assay
human CLDN18.2 [3] = target: T1, human CLDN18.2; test: FACS, NUGC-4 cells (natural CLDN18.2)
Method: as §1

human CLDN18.2 [4] = target: T1, human CLDN18.2; test: FACS, KATOIII cells (natural CLDN18.2); remark: listed apart in the source
Method: as §1

human CLDN18.2 [5] = target: T1, human CLDN18.2; test: FACS, NUGC-4 cells (natural CLDN18.2); remark: listed apart in the source
Method: as §1

human CLDN18.2 [6] = target: T1, human CLDN18.2; test: cell-based or functional assay; remark: listed apart in the source
human CLDN18.2 [7] = target: T1, human CLDN18.2; test: cell-based or functional assay; remark: listed apart in the source

B1: humanized antibody hz28G3-1.2 (antibody, human IgG1, kappa, V domains shown)
VH: QVQLVQSGAEVKKPGASVKVSCKASGYTFTDYLMLWVRQAPGQGLEWMGNINPYYGRTYYALKFQGRVTMTVDRSTSTVYMELSSLRSEDTAVYYCARDGYSLRNAMDYWGQGTLVTVSS
VL: DIVMTQSPDSLAVSLGERATINCKSSQSLFNSGNQKNYLAWYQQKPGQPPKLLIYGASTRESGVPDRFSGSGSGTDFTLTISSLQAEDVAVYYCQNAHSYPYTFGQGTKVEIKR
Human CLDN18.2 [1]
  EC50: 5840 pM
Human CLDN18.2 [2]
  ADCC EC50, Jurkat-CD16a v158-NFAT-luciferase effector cells, KATOIII target cells: 396 pM
  ADCC EC50, Jurkat-CD16a v158-NFAT-luciferase effector cells, U2OS-CLDN18.2 target cells: 15 pM
Human CLDN18.2 [3]
  EC50: 14100 pM

B2: humanized antibody hz40F6-1.3 (antibody, human IgG1, kappa, V domains shown)
VH: QVQLVESGGGVVQPGRSLRLSCAASGFTLTSYGVYWVRQAPGKGLEWVAVVWAGGNTNYADALKGRFTISKDNSKSTLYLQMNSLRAEDTAVYYCARDRGRLLAMDYWGQGTLVTVSS
VL: DIVMTQSPDSLAVSLGERATINCKSSQSLLNSGNQKNYLAWYQQKPGQPPKLLIYGASTRESGVPDRFTGSGSGTDFTLTISSLQAEDVAVYYCQNDHFFPFTFGQGTKVEIKR
Human CLDN18.2 [4]
  EC50: 7900 pM
Human CLDN18.2 [5]
  EC50: 17700 pM
Human CLDN18.2 [6]
  CDC EC50, NIH-3T3-CLDN18.2 target cells: 840 pM
Human CLDN18.2 [7]
  ADCC EC50, Jurkat-CD16a v158-NFAT-luciferase effector cells, NIH-3T3-CLDN18.2 target cells: 17 pM
  ADCC EC50, Jurkat-CD16a v158-NFAT-luciferase effector cells, NUGC-4 target cells: 23 pM

B3: humanized antibody hz28G3-2.4 (antibody, human IgG1, kappa, V domains shown)
VH: QVQLVQSGAEVKKPGASVKVSCKASGYTFTDYLMLWVRQAHGQSLEWMGNINPYYGRTYYALKFQGRVTMTVDRSTSTVYMELSSLRSEDTAVYYCARDGYSLRNAMDYWGQGTLVTVSS
VL: DIVMTQSPYSLAVSLGERATINCKSSQSLFNSGNQKNYLAWYQQKPGQPPKLLIYGASTRESGVPDRFTGSGSGTDFTLTISSLQAEDVAVYYCQNAHSYPYTFGQGTKVEIKR
Human CLDN18.2 [1]
  EC50: 5620 pM
Human CLDN18.2 [2]
  ADCC EC50, Jurkat-CD16a v158-NFAT-luciferase effector cells, KATOIII target cells: 275 pM
  ADCC EC50, Jurkat-CD16a v158-NFAT-luciferase effector cells, U2OS-CLDN18.2 target cells: 17 pM
Human CLDN18.2 [3]
  EC50: 14200 pM

B4: humanized antibody hz40F6-1.1 (antibody, human IgG1, kappa, V domains shown)
VH: QVQLVESGGGVVQPGRSLRLSCAASGFTLTSYGVYWVRQAPGKGLEWVAVVWAGGNTNYADSVKGRFTISKDNSKSTLYLQMNSLRAEDTAVYYCARDRGRLLAMDYWGQGTLVTVSS
VL: DIVMTQSPDSLAVSLGERATINCKSSQSLLNSGNQKNYLAWYQQKPGQPPKLLIYGASTRESGVPDRFTGSGSGTDFTLTISSLQAEDVAVYYCQNDHFFPFTFGQGTKVEIKR
Human CLDN18.2 [4]
  EC50: 8240 pM
Human CLDN18.2 [5]
  EC50: 20000 pM
Human CLDN18.2 [6]
  CDC EC50, NIH-3T3-CLDN18.2 target cells: 1470 pM
Human CLDN18.2 [7]
  ADCC EC50, Jurkat-CD16a v158-NFAT-luciferase effector cells, NIH-3T3-CLDN18.2 target cells: 13 pM
  ADCC EC50, Jurkat-CD16a v158-NFAT-luciferase effector cells, NUGC-4 target cells: 45 pM

B5: humanized antibody hz28G3-2.3 (antibody, human IgG1, kappa, V domains shown)
VH: QVQLVQSGAEVKKPGASVKVSCKTSGYSFTDYLMLWVRQAHGQSLEWMGNINPYYGRTTYALKFKGRVTMTVDRSTSTVYMELSSLRSEDTAVYYCARDGYSLRNAMDYWGQGTLVTVSS
VL: DIVMTQSPYSLAVSLGERATINCKSSQSLFNSGNQKNYLAWYQQKPGQPPKLLIYGASTRESGVPDRFTGSGSGTDFTLTISSLQAEDVAVYYCQNAHSYPYTFGQGTKVEIKR
Human CLDN18.2 [1]
  EC50: 6540 pM
Human CLDN18.2 [2]
  ADCC EC50, Jurkat-CD16a v158-NFAT-luciferase effector cells, KATOIII target cells: 209 pM
  ADCC EC50, Jurkat-CD16a v158-NFAT-luciferase effector cells, U2OS-CLDN18.2 target cells: 19 pM
Human CLDN18.2 [3]
  EC50: 12000 pM

B6: humanized antibody hz28G3-1.4 (antibody, human IgG1, kappa, V domains shown)
VH: QVQLVQSGAEVKKPGASVKVSCKASGYTFTDYLMLWVRQAHGQSLEWMGNINPYYGRTYYALKFQGRVTMTVDRSTSTVYMELSSLRSEDTAVYYCARDGYSLRNAMDYWGQGTLVTVSS
VL: DIVMTQSPDSLAVSLGERATINCKSSQSLFNSGNQKNYLAWYQQKPGQPPKLLIYGASTRESGVPDRFSGSGSGTDFTLTISSLQAEDVAVYYCQNAHSYPYTFGQGTKVEIKR
Human CLDN18.2 [1]
  EC50: 5830 pM
Human CLDN18.2 [2]
  ADCC EC50, Jurkat-CD16a v158-NFAT-luciferase effector cells, KATOIII target cells: 184 pM
  ADCC EC50, Jurkat-CD16a v158-NFAT-luciferase effector cells, U2OS-CLDN18.2 target cells: 17 pM
Human CLDN18.2 [3]
  EC50: 14000 pM

B7: humanized antibody hz40F6-2.1 (antibody, human IgG1, kappa, V domains shown)
VH: QVQLVESGGGVVQPGRSLRLSCAASGFTLTSYGVYWVRQAPGKGLEWVAVVWAGGNTNYADSVKGRFTISKDNSKSTLYLQMNSLRAEDTAVYYCARDRGRLLAMDYWGQGTLVTVSS
VL: DIVMTQSPDSLAVSLGERATINCKSSQSLLNSGNQKNYLAWYQQKPGQPPKLLIYGASTRESGVPDRFSGSGSGTDFTLTISSLQAEDVAVYYCQNDYFFPFTFGQGTKVEIKR
Human CLDN18.2 [4]
  EC50: 8770 pM
Human CLDN18.2 [5]
  EC50: 18700 pM
Human CLDN18.2 [6]
  CDC EC50, NIH-3T3-CLDN18.2 target cells: 3800 pM
Human CLDN18.2 [7]
  ADCC EC50, Jurkat-CD16a v158-NFAT-luciferase effector cells, NIH-3T3-CLDN18.2 target cells: 12 pM
  ADCC EC50, Jurkat-CD16a v158-NFAT-luciferase effector cells, NUGC-4 target cells: 149 pM

B8: humanized antibody hz40F6-1.2 (antibody, human IgG1, kappa, V domains shown)
VH: QVQLVESGGGVVQPGRSLRLSCAASGFTLTSYGVYWVRQAPGKGLEWVAVVWAGGNTNYNSALMSRFTISKDNSKSTLYLQMNSLRAEDTAVYYCARDRGRLLAMDYWGQGTLVTVSS
VL: DIVMTQSPDSLAVSLGERATINCKSSQSLLNSGNQKNYLAWYQQKPGQPPKLLIYGASTRESGVPDRFTGSGSGTDFTLTISSLQAEDVAVYYCQNDHFFPFTFGQGTKVEIKR
Human CLDN18.2 [4]
  EC50: 7420 pM
Human CLDN18.2 [5]
  EC50: 16000 pM
Human CLDN18.2 [6]
  CDC EC50, NIH-3T3-CLDN18.2 target cells: 540 pM
Human CLDN18.2 [7]
  ADCC EC50, Jurkat-CD16a v158-NFAT-luciferase effector cells, NIH-3T3-CLDN18.2 target cells: 30 pM
  ADCC EC50, Jurkat-CD16a v158-NFAT-luciferase effector cells, NUGC-4 target cells: 19 pM

B9: humanized antibody hz28G3-2.2 (antibody, human IgG1, kappa, V domains shown)
VH: QVQLVQSGAEVKKPGASVKVSCKASGYTFTDYLMLWVRQAPGQGLEWMGNINPYYGRTYYALKFQGRVTMTVDRSTSTVYMELSSLRSEDTAVYYCARDGYSLRNAMDYWGQGTLVTVSS
VL: DIVMTQSPYSLAVSLGERATINCKSSQSLFNSGNQKNYLAWYQQKPGQPPKLLIYGASTRESGVPDRFTGSGSGTDFTLTISSLQAEDVAVYYCQNAHSYPYTFGQGTKVEIKR
Human CLDN18.2 [1]
  EC50: 5920 pM
Human CLDN18.2 [2]
  ADCC EC50, Jurkat-CD16a v158-NFAT-luciferase effector cells, KATOIII target cells: 861 pM
  ADCC EC50, Jurkat-CD16a v158-NFAT-luciferase effector cells, U2OS-CLDN18.2 target cells: 17 pM
Human CLDN18.2 [3]
  EC50: 12400 pM

B10: humanized antibody hz40F6-2.4 (antibody, human IgG1, kappa, V domains shown)
VH: QVQLVESGGGVVQPGRSLRLSCTVSGFTLTSYGVYWVRQAPGKGLEWVAVVWAGGNTNYNSALKGRFTISKDNSKSTLYLQMNSLRAEDTAVYYCARDRGRLLAMDYWGQGTLVTVSS
VL: DIVMTQSPDSLAVSLGERATINCKSSQSLLNSGNQKNYLAWYQQKPGQPPKLLIYGASTRESGVPDRFSGSGSGTDFTLTISSLQAEDVAVYYCQNDYFFPFTFGQGTKVEIKR
Human CLDN18.2 [4]
  EC50: 6380 pM
Human CLDN18.2 [5]
  EC50: 13400 pM
Human CLDN18.2 [6]
  CDC EC50, NIH-3T3-CLDN18.2 target cells: 890 pM
Human CLDN18.2 [7]
  ADCC EC50, Jurkat-CD16a v158-NFAT-luciferase effector cells, NIH-3T3-CLDN18.2 target cells: 14 pM
  ADCC EC50, Jurkat-CD16a v158-NFAT-luciferase effector cells, NUGC-4 target cells: 30 pM

B11: humanized antibody hz40F6-2.2 (antibody, human IgG1, kappa, V domains shown)
VH: QVQLVESGGGVVQPGRSLRLSCAASGFTLTSYGVYWVRQAPGKGLEWVAVVWAGGNTNYNSALMSRFTISKDNSKSTLYLQMNSLRAEDTAVYYCARDRGRLLAMDYWGQGTLVTVSS
VL: DIVMTQSPDSLAVSLGERATINCKSSQSLLNSGNQKNYLAWYQQKPGQPPKLLIYGASTRESGVPDRFSGSGSGTDFTLTISSLQAEDVAVYYCQNDYFFPFTFGQGTKVEIKR
Human CLDN18.2 [4]
  EC50: 7540 pM
Human CLDN18.2 [5]
  EC50: 14900 pM
Human CLDN18.2 [6]
  CDC EC50, NIH-3T3-CLDN18.2 target cells: 530 pM
Human CLDN18.2 [7]
  ADCC EC50, Jurkat-CD16a v158-NFAT-luciferase effector cells, NIH-3T3-CLDN18.2 target cells: 10 pM
  ADCC EC50, Jurkat-CD16a v158-NFAT-luciferase effector cells, NUGC-4 target cells: 19 pM

B12: humanized antibody hz40F6-2.3 (antibody, human IgG1, kappa, V domains shown)
VH: QVQLVESGGGVVQPGRSLRLSCAASGFTLTSYGVYWVRQAPGKGLEWVAVVWAGGNTNYADALKGRFTISKDNSKSTLYLQMNSLRAEDTAVYYCARDRGRLLAMDYWGQGTLVTVSS
VL: DIVMTQSPDSLAVSLGERATINCKSSQSLLNSGNQKNYLAWYQQKPGQPPKLLIYGASTRESGVPDRFSGSGSGTDFTLTISSLQAEDVAVYYCQNDYFFPFTFGQGTKVEIKR
Human CLDN18.2 [4]
  EC50: 6130 pM
Human CLDN18.2 [5]
  EC50: 16200 pM
Human CLDN18.2 [6]
  CDC EC50, NIH-3T3-CLDN18.2 target cells: 900 pM
Human CLDN18.2 [7]
  ADCC EC50, Jurkat-CD16a v158-NFAT-luciferase effector cells, NIH-3T3-CLDN18.2 target cells: 14 pM
  ADCC EC50, Jurkat-CD16a v158-NFAT-luciferase effector cells, NUGC-4 target cells: 28 pM

B13: humanized antibody hz28G3-2.1 (antibody, human IgG1, kappa, V domains shown)
VH: QVQLVQSGAEVKKPGASVKVSCKTSGYSFTDYLMLWVRQAPGQGLEWMGNINPYYGRTTYALKFKGRVTMTVDRSTSTVYMELSSLRSEDTAVYYCARDGYSLRNAMDYWGQGTLVTVSS
VL: DIVMTQSPYSLAVSLGERATINCKSSQSLFNSGNQKNYLAWYQQKPGQPPKLLIYGASTRESGVPDRFTGSGSGTDFTLTISSLQAEDVAVYYCQNAHSYPYTFGQGTKVEIKR
Human CLDN18.2 [1]
  EC50: 7250 pM
Human CLDN18.2 [2]
  ADCC EC50, Jurkat-CD16a v158-NFAT-luciferase effector cells, KATOIII target cells: 184 pM
  ADCC EC50, Jurkat-CD16a v158-NFAT-luciferase effector cells, U2OS-CLDN18.2 target cells: 19 pM
Human CLDN18.2 [3]
  EC50: 12100 pM
